Our source for the % of best binder values is patent publication US20260009051A1.

What all share (assay): FACS, mAb 5 µg/ml, CD20 variant on transfected HEK293 cells
Experiment [1] deals with K175R.
The target in experiment [2] is N171A.
Experiment [3] has as its target A170P.
Experiment [4] addresses WT.
The target of experiment [5] is E168A.
For experiment [6], the target named is N176A.
In experiment [7] the target is E174D.
The target of experiment [8] is K175F.
Experiment [9] concerns the target E174Y.
For experiment [10], the target named is S177A.
Experiment [11] has as its target S173A.
Experiment [12] deals with A170S.
Experiment [13] has as its target N171H.
Experiment [14] concerns the target P172A.

Sequence of A170S (CD20, as listed by the source A170S A170S limits assumed): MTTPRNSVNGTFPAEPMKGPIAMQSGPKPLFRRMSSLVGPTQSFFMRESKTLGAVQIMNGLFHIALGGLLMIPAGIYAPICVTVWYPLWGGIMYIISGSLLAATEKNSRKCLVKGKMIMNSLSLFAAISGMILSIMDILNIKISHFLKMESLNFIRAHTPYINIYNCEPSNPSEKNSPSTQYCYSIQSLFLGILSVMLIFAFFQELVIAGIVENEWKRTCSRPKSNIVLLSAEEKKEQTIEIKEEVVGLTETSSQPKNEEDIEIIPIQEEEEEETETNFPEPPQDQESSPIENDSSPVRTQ
Sequence of P172A (CD20, as listed by the source P172A P172A limits assumed): as the sequence (CD20, as listed by the source A170S A170S limits assumed) above, with S170A, P172A counted along it
Sequence of E174D (CD20, as listed by the source E174D E174D limits assumed): as the sequence (CD20, as listed by the source A170S A170S limits assumed) above, with S170A, E174D counted along it
Sequence of S177A (CD20, as listed by the source S177A S177A limits assumed): as the sequence (CD20, as listed by the source A170S A170S limits assumed) above, with S170A, S177A counted along it
Sequence of A170P (CD20, as listed by the source A170P A170P limits assumed): as the sequence (CD20, as listed by the source A170S A170S limits assumed) above, with S170P counted along it
Sequence of K175F (CD20, as listed by the source K175F K175F limits assumed): as the sequence (CD20, as listed by the source A170S A170S limits assumed) above, with S170A, K175F counted along it
Sequence of E168A (CD20, as listed by the source E168A E168A limits assumed): as the sequence (CD20, as listed by the source A170S A170S limits assumed) above, with E168A, S170A counted along it
Sequence of N171H (CD20, as listed by the source N171H N171H limits assumed): as the sequence (CD20, as listed by the source A170S A170S limits assumed) above, with S170A, N171H counted along it
Sequence of N171A (CD20, as listed by the source N171A N171A limits assumed): as the sequence (CD20, as listed by the source A170S A170S limits assumed) above, with S170A, N171A counted along it
Sequence of N176A (CD20, as listed by the source N176A N176A limits assumed): as the sequence (CD20, as listed by the source A170S A170S limits assumed) above, with S170A, N176A counted along it
Sequence of WT (CD20, as listed by the source limits assumed): as the sequence (CD20, as listed by the source A170S A170S limits assumed) above, with S170A counted along it
Sequence of K175R (CD20, as listed by the source K175R K175R limits assumed): as the sequence (CD20, as listed by the source A170S A170S limits assumed) above, with S170A, K175R counted along it
Sequence of S173A (CD20, as listed by the source S173A S173A limits assumed): as the sequence (CD20, as listed by the source A170S A170S limits assumed) above, with S170A, S173A counted along it
Sequence of E174Y (CD20, as listed by the source E174Y E174Y limits assumed): as the sequence (CD20, as listed by the source A170S A170S limits assumed) above, with S170A, E174Y counted along it

For B1 (antibody), the % of best binder in experiment [1] is 53%; in experiment [2], 46%; in experiment [3], 38%; in experiment [4], 59%; in experiment [5], 48%; in experiment [6], 2%. Besides, the % of best binder worked out at 57% in experiment [7]; 46% in experiment [8]; 51% in experiment [9]; 40% in [10]; 55% in [11]; 55% in experiment [12]. The % of best binder in experiment [13] stood at 58%; in [14], 31%.

On to m7D8 (antibody), for which the % of best binder in experiment [1] was 71%; in experiment [2] it was 82%; in [3] it was 62%; in [4], 77%; in [5], 66%; in [6], 67%. For the same substance, the % of best binder came out at 67% in experiment [7]; 71% in [8]; 80% in experiment [9]; 68% in experiment [10]; 73% in experiment [11]; 60% in experiment [12]. Moreover, the % of best binder was found to be 86% in experiment [13] and 69% in experiment [14].

Regarding m11B8 (antibody), the % of best binder in [1] turned out to be 89%; in [2] it was 100%; in [3], 41%; in [4] it was 82%; in experiment [5] it was 83%; in experiment [6], 88%. The % of best binder in experiment [7] came to 9%; in [8], 94%; in experiment [9], 13%; in experiment [10], 79%; in experiment [11] it was 98%; in experiment [12] it was 84%. Besides, the % of best binder in [13] was 100%; in [14] it was 96%.

mRTX (antibody): the % of best binder was 65% in experiment [1]; 3% in experiment [2]; 42% in [3]; 77% in experiment [4]; 52% in [5]; 65% in [6]. Besides, the % of best binder in experiment [7] amounted to 52%; in [8], 67%; in [9], 29%; in experiment [10], 63%; in experiment [11], 2%; in [12], 60%. Also, the % of best binder worked out at 5% in experiment [13] and 25% in experiment [14].
